The values that follow come from the supplement of paper PMC12042874.

The nature of this data set: amyloid nucleation score (Sup35N fusion, yeast selection) (log enrichment); library NNK1; higher = more nucleation; inactive = no reads after selection. In a few lines:
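Random libraries were run with three technical output replicates. In each, psi-negative yeast expressing Sup35N fused to peptides of 20 random codons were induced 24 hours with 100 μM copper sulfate and grown 7 days at 30°C on medium lacking adenine and uracil, and input and output plasmid inserts were Illumina-sequenced. The nucleation score is the DiMSum log enrichment of output over input reads, centred on the mode score of non-aggregating sequences, and sequences under 100 input reads were excluded.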

± gives the uncertainty stated by the source.

Turning to CVPPRVRCRFEL, the amyloid nucleation score stood at 0.792 ± 0.46.

In turn, GHRINAYVVVVHLGSSGGGW yielded an amyloid nucleation score of 2.07 ± 0.29. Substance YYCTQRLNSHSVLMSLADRW registered an amyloid nucleation score of 0.035 ± 0.76.

As to WFGYNIGPK, the amyloid nucleation score was 2 ± 0.28. The figure for LAQELGR is 1.68 ± 0.73.

As for VGFRVDFNIDLQLFLYRNEK, the amyloid nucleation score was determined as 0.334 ± 0.81. In turn, IKEFLKACNHHEPMPGNLMR registered an amyloid nucleation score of -0.005 ± 0.54. In the case of SLKGFADSVSGSVGLKDKAV, the amyloid nucleation score was 0.502 ± 0.61. CMNSMC had an amyloid nucleation score of 0.066 ± 0.66.

As to SVNWRYRALFDVRPAPLASQ, the amyloid nucleation score is -1.74 ± 2.4. With ASPVLFKWICPIYTS, the amyloid nucleation score stood at 2.87 ± 0.15. In turn, TGDVLIYWFLVTHRMTAVQV had an amyloid nucleation score of -0.096 ± 1. On to LFHCRSIDRNLYYRHAFLIY, for which the amyloid nucleation score is 0.466 ± 0.39. With FVMFMPFSSHFS, the amyloid nucleation score was found to be 0.848 ± 0.58. The figure for MKIVNVHAWATQLARGDICE is 0.745 ± 0.83. As for FTSPVIKY, the amyloid nucleation score came to 0.089 ± 0.89. The figure for IWMGCYVNVARSK is 1.03 ± 0.22; for WYWELGLALKRWRYAANFGS it is -0.19 ± 0.96.

Consider IRNSEKLNRGCGCGVMHVSV, for which the amyloid nucleation score was 0.239 ± 0.49.

TYTPRETTSTCSAYSFYMLK showed an amyloid nucleation score of 1.26 ± 0.15. In the case of FYRNIIKINMMVLWISWGHV, the amyloid nucleation score was 0.185 ± 0.79. Next, MKRVWSYIAGKNARNLKGRL: 0.174 ± 0.41; IILCNRPMSYLRYNGARFLA: 0.948 ± 0.36. Turning to SSVCGKL, the amyloid nucleation score was -0.211 ± 0.7. The substance DIVSVVVWLKQYLWFEQWNV had an amyloid nucleation score of 0.644 ± 0.81. YYDTEGIHHSSIQRCQIRAG displayed an amyloid nucleation score of 1.16 ± 0.58.

On to CSRRFYESPCKEPAA, for which the amyloid nucleation score is 0.145 ± 0.43.

Take KFTFDS: the amyloid nucleation score was 1.52 ± 0.35. Consider MVSIWINFT, for which the amyloid nucleation score amounted to 6.38 ± 0.08.

On to KGCAIGRRAINSCYQSGWIW, for which the amyloid nucleation score is 1.6 ± 0.57. Next, PSFNLNFVRINLQDGNMRLS: 7.038 ± 0.048; YLFQAGQDTRLLIC: 0.236 ± 0.63. For MRFKFMALGCEVLILGGFGS, the amyloid nucleation score was 3.72 ± 0.16. The substance LKMFSRPCVMIKNRTGVR registered an amyloid nucleation score of 0.452 ± 0.33.

Regarding PQGSVGLEFKNYCVRAACGF, the amyloid nucleation score turned out to be 0.078 ± 0.93.

On to RNSSGRGERLLVQYAQKKKR, for which the amyloid nucleation score is -0.136 ± 0.41.

Turning to VFMSLESFYKYNYTHFFFRK, the amyloid nucleation score was 0.114 ± 0.39. Take GPILDSNKASIPIV: the amyloid nucleation score was -0.322 ± 0.96. In turn, ANRYRVLKE returned an amyloid nucleation score of 3.88 ± 0.095. In turn, CWDGRQIWVILVIVLIRINA came in with an amyloid nucleation score of -0.466 ± 0.91. In turn, NSELFIGGDYLDIDST returned an amyloid nucleation score of 0.591 ± 0.43. For YVMAVI, the amyloid nucleation score was found to be 1.64 ± 0.5. The figure for YTFLYSPTHCPRENHPNSVL is 0.211 ± 0.61; for MHSPRGLE it is 1.07 ± 0.79; for LGFQLFNQGWAQNSTPRFSY it is -1.29 ± 1.9. In turn, ELAAMCSWAYSN registered an amyloid nucleation score of 0.097 ± 0.41. As for SFSKYAGFARKWSMLRVASY, the amyloid nucleation score was -0.337 ± 1.2. RYFSWFYVN returned an amyloid nucleation score of -0.089 ± 0.93. The substance TKGAFKVEKWSLSE displayed an amyloid nucleation score of -0.115 ± 0.23.

In the case of YSNLSCSQTDVRSLR, the amyloid nucleation score turned out to be 0.494 ± 0.49. The figure for FLMLRAYESMARFYDVLWIG is 0.088 ± 0.37; for RYCQVP it is 0.348 ± 0.43. Regarding WCARNISRCPSNISGNLGMK, the amyloid nucleation score was -0.461 ± 0.69. Substance YNKCLCAVLSRMFTGWHISA showed an amyloid nucleation score of 0.795 ± 0.88. For the substance GSVVYVIQGDMKRVLGFNGM, the amyloid nucleation score is 5.42 ± 0.096. NCSGCIWVRMCLNHFGVCTD returned an amyloid nucleation score of 2.38 ± 0.16. Next, YQDVIPNPVHRYTV: 0.371 ± 0.31; LPLGYRLLAQPCPESSRTPA: 0.001 ± 0.53. With FKEMIAWPWLESSSGEFTIV, the amyloid nucleation score came out at 0.645 ± 0.62.

Turning to FFSYVYGVSACFLVTLLFGP, the amyloid nucleation score was -0.229 ± 0.32. Turning to LRYFGL, the amyloid nucleation score entry is “inactive”. Next, SPFLSAFLSFLTSFYLIFMG: -0.164 ± 0.61; VIVARQFISPSVYGDAMDHS: 1.15 ± 0.97; SWPSPGVRQEQNCWCTRTFV: “inactive”. The substance LIGRIGDFLA showed an amyloid nucleation score of 0.097 ± 0.72. Next, QWRFKVRVHVEVSSSGVCSI: “inactive”; QGPVGVSYILHDFIIML: 5.94 ± 0.093; VRADFALTWLLGVCRVWCCR: 0.247 ± 0.36. The substance LRCRQKKYAAYRGTAVYWLL came in with an amyloid nucleation score of -0.236 ± 0.76. Consider MEISLVINWSIIITKVCVCV, for which the amyloid nucleation score is 0.497 ± 0.33. Consider RIILGETGAALWWRI, for which the amyloid nucleation score was determined as 4.61 ± 0.079. For HLSWLRINLPGSPHPPMSLP, the amyloid nucleation score was 3.57 ± 0.11. As to SFIELMMASRLF, the amyloid nucleation score worked out at 0.367 ± 0.35. EFGNVIRVCNLI yielded an amyloid nucleation score of -0.289 ± 0.34. In turn, GLNDYIKVFLYFDSVNRYLD yielded an amyloid nucleation score of -0.694 ± 1.1. Substance FCCGSGNSMDMCWFLSIG gave an amyloid nucleation score of 6.93 ± 0.079. For the substance FLHNSWTGGGGTYGICKMRV, the amyloid nucleation score is -0.368 ± 0.65.

With SRPSQCYINAFMFSMFKSGN, the amyloid nucleation score entry is “inactive”. Substance MVIRYFCQESA returned an amyloid nucleation score of -0.799 ± 1.1. Next, LLVLYCALLMRLSGLGHAWG: -0.269 ± 0.51; IWIDKRWLMMPKLVRKVPNV: “inactive”. As to SNFLHCIVIILWLCFNL, the amyloid nucleation score turned out to be 0.53 ± 0.71. The figure for LRLRVTNVLILGSLGIDEMY is 2.37 ± 0.28; for RIMMMGQLTFVYMGQHSSMV it is -0.062 ± 0.57; for SYSYRLQPFIAMLLGSFL it is -1.04 ± 2.7. Substance DLPLTYMCSN had an amyloid nucleation score of 0.359 ± 0.7.

In turn, STLSAYCPTILA yielded an amyloid nucleation score of 0.171 ± 0.25. Substance ISICDVYLWVHMRYSL had an amyloid nucleation score of 0.584 ± 0.21. Next, SNGCPFDTIDQAKVGTVV: 0.861 ± 0.68. The substance SHPFTFSCAHILLWMSLRRF came in with an amyloid nucleation score of 0.276 ± 0.45.

Take LNDPMAGRLNNVRSGCLDDV: the amyloid nucleation score was -0.059 ± 0.43. Consider APRHDCMSSDLQVVKMDFLL, for which the amyloid nucleation score was 0.799 ± 0.41. In turn, SPAFQWHLYPSA displayed an amyloid nucleation score of 0.592 ± 0.87.

ANRHRNRRSSSRDVFMFVIC returned an amyloid nucleation score of 3.02 ± 0.19. LGVPRVISCSCHLSVRNSAK: the amyloid nucleation score is 0.413 ± 0.9. In the case of GVDKEINLFMYRPYRFVSGE, the amyloid nucleation score was found to be 1.1 ± 0.24. Turning to GYGIMANS, the amyloid nucleation score is -0.179 ± 0.51. Next, DIRVIVRIYQSIINL: 3.15 ± 0.09; IGLAICNLLFSTGWGYQPLW: 5.75 ± 0.083; RWGATRFVVTS: 0.304 ± 1.2. In the case of ERYKY, the amyloid nucleation score worked out at 0.601 ± 0.61. For the substance GILFDLICIDLCFIGVLLKM, the amyloid nucleation score is -0.406 ± 0.44. With GAYLLPLSIWNLGPSNGR, the amyloid nucleation score turned out to be 0.132 ± 0.44. Turning to KLESCN, the amyloid nucleation score worked out at 0.39 ± 1.2.
